We go through two proteins from ChEMBL document CHEMBL1158843, “Development of a radiochemical cyclooxygenase-1 and -2 in vitro assay for identification of natural products as inhibitors of prostaglandin biosynthesis” (J Nat Prod, 1998).

Substrate in data set [1]: CCCCC/C=C\C/C=C\C/C=C\C/C=C\CCCC(=O)O
In words: Activity of bovine seminal microsomal COX1. The following applies: Bos taurus.

Substrate in data set [2]: CCCCC/C=C\C/C=C\C/C=C\C/C=C\CCCC(=O)O
The data set can be described thus: Activity of sheep placental cotyledons COX2. The following applies: Ovis aries.

B1: Prostaglandin G/H synthase 1 (Bos taurus), O62664 (protein)
chain: MSRQGISLRFPLLLLLLSPSPVLPADPGAPAPVNPCCYYPCQHQGICVRFGLDRYQCDCTRTGYYGPNCTIPEIWTWLRTTLRPSPSFVHFLLTHGRWLWDFVNATFIRDKLMRLVLTVRSNLIPSPPTYNVAHDYISWESFSNVSYYTRILPSVPRDCPTPMGTKGKKQLPDAEFLSRRFLLRRKFIPDPQGTNLMFAFFAQHFTHQFFKTSGKMGPGFTKALGHGVDLGHIYGDNLERQYQLRLFKDGKLKYQMLNGEVYPPSVEEAPVLMHYPRGIPPQSQMAVGQEVFGLLPGLMVYATIWLREHNRVCDLLKAEHPTWGDEQLFQTARLILIGETIKIVIEEYVQQLSGYFLQLKFDPELLFGAQFQYRNRIAMEFNQLYHWHPLMPDSFRVGPQDYSYEQFLFNTSMLVDYGVEALVDAFSRQPAGRIGGGRNIDHHILHVAVDVIKESRELRLQPFNEYRKRFGMKPYTSFQELTGEKEMAAELEELYGDIDALEFYPGLLLEKCHPNSIFGESMIEMGAPFSLKGLLGNPICSPEYWKASTFGGDVGFNLVKTATLKKLVCLNTKTCPYVSFHVPDPHREDRPGVERPPTEL
For orientation: Km means the substrate concentration at which the rate is half of its maximum. With B1, in data set [1], the Michaelis constant (Km) turned out to be 8.8 µM.

B2: Prostaglandin G/H synthase 2 (Ovis aries), P79208 (protein)
chain: MLARALLLCAAVVCGAANPCCSHPCQNRGVCMSVGFDQYKCDCTRTGFYGENCTTPEFLTRIKLLLKPTPDTVHYILTHFKGVWNIVNKISFLRNMIMRYVLTSRSHLIESPPTYNVHYSYKSWEAFSNLSYYTRALPPVPDDCPTPMGVKGRKELPDSKEVVKKVLLRRKFIPDPQGTNLMFAFFAQHFTHQFFKTDIERGPAFTKGKNHGVDLSHVYGESLERQHNRRLFKDGKMKYQMINGEMYPPTVKDTQVEMIYPPHIPEHLKFAVGQEVFGLVPGLMMYATIWLREHNRVCDVLKQEHPEWGDEQLFQTSRLILIGETIKIVIEDYVQHLSGYHFKLKFDPELLFNQQFQYQNRIAAEFNTLYHWHPLLPDVFQIDGQEYNYQQFIYNNSVLLEHGVTQFVESFTRQIAGRVAGRRNLPAAVEKVSKASLDQSREMKYQSFNEYRKRFLLKPYESFEELTGEKEMAAELEALYGDIDAMELYPALLVEKPAPDAIFGETMVEAGAPFSLKGLMGNPICSPEYWKPSTFGGEVGFKIINTASIQSLICSNVKGCPFTSFSVQDAHLTKTVTINASSSHSGLDDINPTVLLKERSTEL
On to B2, for which, in data set [2], the Km turned out to be 9.7 µM.
